The source of these data is US20170306346.

The series deals with GST-MYC2-HA (UniProt Q39204).
Chain of GST-MYC2-HA (Q39204 whole entry): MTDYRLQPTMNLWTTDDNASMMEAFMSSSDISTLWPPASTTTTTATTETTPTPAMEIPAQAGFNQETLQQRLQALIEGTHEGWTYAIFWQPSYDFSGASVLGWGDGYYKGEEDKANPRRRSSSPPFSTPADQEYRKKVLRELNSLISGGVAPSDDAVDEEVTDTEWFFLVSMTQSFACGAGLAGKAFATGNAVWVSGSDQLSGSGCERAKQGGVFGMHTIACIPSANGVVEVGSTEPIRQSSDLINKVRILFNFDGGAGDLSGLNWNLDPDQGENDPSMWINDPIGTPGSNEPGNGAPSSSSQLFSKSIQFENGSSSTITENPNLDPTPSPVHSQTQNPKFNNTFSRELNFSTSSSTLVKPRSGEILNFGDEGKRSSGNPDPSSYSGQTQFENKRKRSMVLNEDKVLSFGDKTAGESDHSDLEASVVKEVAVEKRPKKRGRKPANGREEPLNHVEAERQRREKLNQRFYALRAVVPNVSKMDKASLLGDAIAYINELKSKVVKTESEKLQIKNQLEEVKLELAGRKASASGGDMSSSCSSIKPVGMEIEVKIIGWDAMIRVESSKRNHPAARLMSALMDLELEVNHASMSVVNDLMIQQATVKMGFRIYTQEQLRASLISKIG

Consider MBP-PUB11 (C247A)-myc, for which the “in vitro ubiquitination of MYC2 (E1, E2, Ub; Western blot)” value is reported as “MBP-PUB11 (C247A)-myc mutant protein has no E3 activity for GST-MYC-HA”.
